The values below come from US20170275344A1, “POLYPEPTIDES AND USES THEREOF AS A DRUG FOR TREATMENT OF AUTOIMMUNE DISORDERS” (Compugen Ltd., priority 2014, published 2017).

The test system of assay [1] is SJL/J mice. Description: Trafficking of transferred PLP139-151 sensitized cells into the CNS (flow cytometry). It is filed as in vivo, mouse. As to the method:
PLP139-151 sensitized cells were generated as described in Materials and Methods (cell counts in the reactivation culture are presented in Table 2) and labeled with PBSE (4 uM) before transfer to naïve mice. In study “Cgen data” (FIG. 12), disease was induced in recipient mice (n=10 per group) by i.v. transfer of 5×10^6 blast cells to each recipient mouse. A relatively large number of transferred cells were used in order to allow detection of the transferred cells by flow cytometry analysis at the end of the study. Mice were split into Control Ig and C1ORF32 ECD-Fc (SEQ ID NO:42) treatment groups, receiving 100 ug/dose intraperitoneal injection three times per week for 2 weeks. On Day +14 after cell transfer, 5 representative mice from each group were selected for analysis of trafficking of transferred cells into the CNS. Spleens, cervical lymph nodes, and CNS were collected, and the number of PBSE- or PBSE+/CD45+/CD3+/CD4+ T cells was analyzed by flow cytometric analysis.
An additional experiment (designated “MYC48 FACS”, FIG. 13) was performed using an alternative staining follow-up approach. SJL-Actin/GFP mice were primed with PLP139-151/CFA, and sensitized blast cells were generated as described in Materials and Methods (cell counts in the reactivation culture are presented in Table 2). On Day +3 of culture, PLP139-151 sensitized cells were collected and labeled with PBSE (4 uM). Disease was induced in the recipient mice (n=10 per group), by i.v. transfer of 5×10^6 blast cells/mouse. Beginning at the time of cell transfer, mice were treated with Control Ig or C1ORF32 ECD-Fc (SEQ ID NO:42) (100 ug/dose i.p. three times per week for 2 weeks). […] To evaluate C1ORF32 ECD-Fc (SEQ ID NO:42) effect on immune cell trafficking to the CNS, spleens, cervical lymph nodes, and CNS cells collected form 5 mice on day +10 post cell transfer, and the number of transferred CD45hi PBSE+ or GFP+ cells was analyzed by flow cytometry. […]
(Flow cytometry measures light scatter and fluorescence of single cells or particles in a stream.)

Assay [2] deals with total splenocytes and lymph node cells. Briefly: Ex vivo recall responses in adoptive transfer R-EAE. It counts as cell-based, mouse. As to the method: On day 45 (unless otherwise indicated) following cell transfer, spleen and cervical lymph nodes or CNS from 3 representative mice of each group were collected, and the total cells were activated ex vivo at 0.5×10^6 cells per well with either OVA323-339, PLP139-151, PLP178-191, MBP84-104 (20 ug/ml), or anti-CD3 (1 ug/ml). Two sets of cultures were set up side-by-side. One set was pulsed with 1 uCi of tritiated thymidine at 24 hours and harvested at 72 hours to determine cell proliferation. In the second set of cultures, supernatants were collected at 72 hours and tested for peptide-specific cytokine production as determined by LiquiChip.

Assay [3] deals with SJL/J mice. Briefly: PLP139-151/CFA R-EAE upon IL-10 or TGFb blockade, clinical score. It is filed as in vivo, mouse. As to the method: SJL/J mice were purchased from Harlan and primed with PLP139-151/CFA per the standard protocol, as described in 21.1.2 Methods, above). At disease remission the mice were split into 6 different treatment groups (n=5) as follows:
Mice were treated with Control Ig (mouse IgG2a) or C1ORF32 ECD-Fc (SEQ ID NO:42) at 100 ug/dose, each via an i.p. injection. This was followed with a second i.p. injection on the same day of either anti-IL-10 (rat IgG1), rat IgG1 (control Ab), or anti-TGFβ (mouse IgG1) at 100 ug/dose, each. All treatments were given 3×/wk for 2 wks, beginning on day +20 (onset of disease remission) and until day +31 post disease induction. All mice were followed for disease scores until day 44 post disease induction. On day 44, mice were sacrificed and analyzed for total T cell and Treg cell numbers in spleen and CNS.
At onset of disease remission (day +20 post disease induction) mice were allocated into 6 treatment groups (described above) and treated with either C1ORF32 ECD-Fc (SEQ ID NO:42) or control Ig (mIgG2a), and followed on the same day by treatment with anti-IL-10, anti-TGF-β, or rat IgG1 isotype control. All treatments were given at 100 ug/dose in 100 μl of PBS; via i.p. injection, at 3×/week for 2 weeks from onset of remission.
Mice were followed for disease and scored on a 0-5 scale per standard lab protocol as follows: 0, no abnormality; 1, limp tail; 2, limp tail and hind limb weakness; 3, hind limb paralysis; 4, hind limb paralysis and forelimb weakness; and 5, moribund. Dead mice were scored with a score of 5 on the day of death only, and were not further scored on the next days.

B1: C1ORF32 ECD-Fc (SEQ ID NO:42): fusion protein of human C1ORF32 ECD fused to mouse immunoglobulin Fc (human-mouse fusion protein) (protein)
chain: LQVTVPDKKKVAMLFQPTVLRCHFSTSSHQPAVVQWKFKSYCQDRMGESLGMSSTRAQSLSKRNLEWDPYLDCLDSRRTVRVVASKQGSTVTLGDFYRGREITIVHDADLQIGKLMWGDSGLYYCIITTPDDLEGKNEDSVELLVLGRTGLLADLLPSFAVEIMGSENLYFQGSGEPRGPTIKPCPPCKCPAPNLLGGPSVFIFPPKIKDVLMISLSPIVTCVVVDVSEDDPDVQISWFVNNVEVHTAQTQTHREDYNSTLRVVSALPIQHQDWMSGKEFKCKVNNKDLPAPIERTISKPKGSVRAPQVYVLPPPEEEMTKKQVTLTCMVTDFMPEDIYVEWTNNGKTELNYKNTEPVLDSDGSYFMYSKLRVEKKNWVERNSYSCSVVHEGLHNHHTTKSFSRTPGK
modifications: Fusion protein human C1ORF32-ECD fused to mouse IgG2a Fc
With B1, the “number of transferred CD4+ T cells within the CNS” value with SJL/J mice [1] (study Cgen data, treatment from time of cell transfer) is on record as “decrease”. Moreover, in the assay with SJL/J mice [1] (study MYC48 FACS, day +10), the “number of total or activated transferred T cells in the spleen and cervical lymph nodes” value is “No change”. Further, the “number of GFP+ and PBSE+ transferred cells in the CNS” value in the assay with SJL/J mice [1] (study MYC48 FACS, day +10 post cell transfer) is recorded as “decrease”. In assay [2] (day 10, treatment from time of cell transfer), the “recall responses of CNS cells to PLP139-151 and anti CD3” value is “abolished”. The GM-CSF secretion entry in assay [2] (day 45, activation with PLP139-151 and PLP178-191) was “inhibition of GM-CSF secretion”. Further, in assay [2] (day 45, activation with anti-CD3, PLP139-151, and PLP178-191), the “IFN-gamma and IL-17 secretion” value is listed as “inhibition”. The “splenocyte secretion of IL-4 and IL-10” value in assay [2] (day 45, in response to PLP139-151) is listed as “increased splenocyte secretion”. Further, the “recall responses: cellular proliferation of splenocytes and lymph node cells” value in assay [2] (day 45, treatment from onset of remission) is listed as “decreased level of cellular proliferation”. For the same molecule, the disease progression entry in the assay on SJL/J mice [3] (100 ug/dose i.p. 3x/wk 2 wks from day +20, followed by rIgG1, vs control Abs only) is recorded as “pronounced inhibition of disease progression”. The “beneficial effect on disease with concomitant anti-IL-10” value with SJL/J mice [3] (followed by anti-IL-10 100 ug/dose) is recorded as “abrogated the beneficial effect”. Besides, the “beneficial effect on disease with concomitant anti-TGFβ” value in the assay on SJL/J mice [3] (followed by anti-TGFβ 100 ug/dose) is “abrogated the beneficial effect”. The mice found dead in the assay with SJL/J mice [3] (group C1ORF32 ECD-Fc and anti-TGFβ, day 28, n=5) was 1; in the assay with SJL/J mice [3] (group C1ORF32 ECD-Fc in combination with anti-IL-10, day 28, n=5), 2.
